Molecular target: T1, hCAP18 (propeptide of LL-37), P49913
T1 chain: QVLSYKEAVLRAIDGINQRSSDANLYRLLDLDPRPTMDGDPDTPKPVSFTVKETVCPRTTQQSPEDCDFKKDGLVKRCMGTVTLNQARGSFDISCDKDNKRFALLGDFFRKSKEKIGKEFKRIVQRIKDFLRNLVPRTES

B1: Proteinase 3 (protein)
chain: IVGGHEAQPHSRPYMASLQMRGNPGSHFCGGTLIHPSFVLTAAHCLRDIPQRLVNVVLGAHNVRTQEPTQQHFSVAQVFLNNYDAENKLNDVLLIQLSSPANLSASVATVQLPQQDQPVPHGTQCLAMGWGRVGAHDPPAQVLQELNVTVVTFFCRPHNICTFVPRRKAGICFGDSGGPLICDGIIQGIDSFVIWGCATRLFPDFFTRVALYVDWIRSTLR
Q: How did the “Western blot of cleavage of the 4 kD LL-37 peptide from hCAP18 in supernatants of activated neutrophils” value turn out when B1 was run?
A: The value was “the cleavage of the 4 kD LL-37 peptide can be blocked by pretreatment of neutrophils with the proteinase 3 inhibitors”.

Reference: patent publication US20110033448
